Experimental data taken from the MegaScale stability set (Tsuboyama et al. 2023).

B1: HEEH_KT_rd6_0007 (parent)
chain: SIEEEIKKAEEAKEKGKTFIHGDFVATTEELLDELLKRLRKKL
B2: EHEE_rd2_0191 (parent)
chain: TTEYTFTDDEEARRAIEELKKRGLTFRYEKHGTTWRVRVD

Variants of: B1
Experiment: folding stability dG (cDNA display proteolysis); higher = more stable
Details: PBS, room temperature

| Variant | folding stability dG [kcal/mol] |
| --- | --- |
| E34F | 1.4 |
| E34C | 1.64 |
| E34H | 1.02 |
| E34D | 0.87 |
| E34R | 1.2 |
| E34W | 1.86 |
| E34Y | 1.4 |
| E34Q | 1.17 |
| E34L | 1.4 |
| E34P | 0.383 |
| E34V | 0.952 |
| E34G | 0.737 |
| E34M | 1.3 |
| E34K | 1.11 |
| E34N | 0.881 |
| E34A | 1.19 |
| E34I | 1.36 |
| E34T | 1.02 |
| E34S | 0.84 |
| L32D | 0.374 |
| L32A | 0.414 |
| L32V | 0.661 |
| L32T | 0.441 |
| L32M | 0.752 |

| Variant | folding stability dG [kcal/mol] |
| --- | --- |
| L32G | 0.372 |
| L32C | 0.637 |
| L32S | 0.285 |
| L32F | 1.59 |
| L32P | 0.168 |
| L32E | 0.247 |
| L32H | 0.393 |
| L32W | 0.894 |
| L32I | 1.46 |
| L32Y | 1.22 |
| L32N | 0.294 |
| L32R | 0.281 |
| L32K | 0.345 |
| L32Q | 0.13 |
| E30W | 1.42 |
| E30N | 0.882 |
| E30G | 0.9 |
| E30S | 1.12 |
| E30A | 1.41 |
| E30K | 1.24 |
| E30V | 0.976 |
| E30M | 1.05 |
| E30I | 0.954 |
| E30L | 1.14 |

| Variant | folding stability dG [kcal/mol] |
| --- | --- |
| E30H | 1.15 |
| E30P | 0.673 |
| E30D | 1.17 |
| E30F | 1.13 |
| E30R | 1.19 |
| E30T | 1.09 |
| E30Q | 1.14 |
| E30C | 1.63 |
| E30Y | 1.15 |
| L35F | 0.799 |
| L35E | 0.313 |
| L35Y | 0.817 |
| L35Q | 0.486 |
| L35M | 0.714 |
| L35D | 0.12 |
| L35R | 0.542 |
| L35A | 0.494 |
| L35G | 0.119 |
| L35W | 0.882 |
| L35K | 0.309 |
| L35T | 0.38 |
| L35V | 0.702 |
| L35N | 0.287 |
| L35H | 0.458 |

| Variant | folding stability dG [kcal/mol] |
| --- | --- |
| L35P | -0.141 |
| L35I | 1.15 |
| L35S | 0.043 |
| D33E | 1.34 |
| D33M | 1.17 |
| D33N | 1.27 |
| D33L | 1.23 |
| D33H | 1.04 |
| D33S | 1.04 |
| D33Y | 1.28 |
| D33G | 0.853 |
| D33F | 1.32 |
| D33R | 1.37 |
| D33Q | 0.991 |
| D33K | 1.23 |
| D33I | 1.35 |
| D33C | 1.98 |
| D33W | 1.44 |
| D33A | 1.22 |
| D33P | -0.325 |
| D33V | 1.17 |
| D33T | 1.1 |
| L43W | 1.06 |
| L43R | 1.14 |

| Variant | folding stability dG [kcal/mol] |
| --- | --- |
| L43I | 0.768 |
| L43G | 0.444 |
| L43N | 0.566 |
| L43F | 1.05 |
| L43Q | 0.837 |
| L43C | 1.31 |
| L43P | 0.431 |
| L43E | 0.224 |
| L43K | 0.822 |
| L43A | 0.591 |
| L43H | 0.788 |
| L43V | 0.562 |
| L43D | 0.207 |
| L43T | 0.533 |
| L43M | 0.858 |
| L43Y | 0.992 |
| L43S | 0.524 |
| T28P | 0.562 |
| T28S | 1.15 |
| T28I | 1.31 |
| T28Q | 0.473 |
| T28D | 0.797 |
| T28A | 0.936 |
| T28N | 1.09 |

| Variant | folding stability dG [kcal/mol] |
| --- | --- |
| T28G | 0.966 |
| T28E | 0.679 |
| T28F | 1.32 |
| T28C | 1.98 |
| T28Y | 0.985 |
| T28W | 1.19 |
| T28H | 0.534 |
| T28M | 1.34 |
| T28V | 1.17 |
| T28R | 0.557 |
| T28L | 1.3 |
| T28K | 0.472 |
| E29C | 2.15 |
| E29H | 1.2 |
| E29Y | 1.18 |
| E29S | 1.46 |
| E29F | 1.47 |
| E29P | 1.78 |
| E29R | 1.62 |
| E29K | 1.52 |
| E29N | 1.26 |
| E29G | 1.32 |
| E29W | 1.78 |
| E29Q | 1.41 |

| Variant | folding stability dG [kcal/mol] |
| --- | --- |
| E29D | 1.21 |
| E29I | 1.76 |
| E29T | 1.55 |
| E29A | 1.63 |
| E29L | 1.64 |
| E29V | 1.65 |
| E29M | 1.63 |
| K41I | 1.2 |
| K41M | 1.38 |
| K41N | 1.11 |
| K41Y | 0.949 |
| K41A | 1.57 |
| K41R | 1.54 |
| K41V | 1.07 |
| K41D | 1.1 |
| K41P | 0.057 |
| K41F | 0.949 |
| K41Q | 1.41 |
| K41S | 1.12 |
| K41G | 0.924 |
| K41T | 1.04 |
| K41L | 1.42 |
| K41H | 1.15 |
| K41E | 1.19 |

| Variant | folding stability dG [kcal/mol] |
| --- | --- |
| K41W | 1.08 |
| T27R | 0.962 |
| T27V | 1.09 |
| T27H | 1.41 |
| T27G | 1.08 |
| T27K | 1.09 |
| T27W | 1.66 |
| T27L | 1.22 |
| T27I | 1.11 |
| T27M | 1.17 |
| T27Q | 0.865 |
| T27Y | 1.62 |
| T27F | 1.55 |
| T27S | 1.57 |
| T27N | 1.98 |
| T27P | 0.51 |
| R40H | 0.662 |
| R40A | 0.53 |
| R40K | 0.773 |
| R40T | 0.465 |
| R40V | 0.699 |
| R40G | 0.155 |
| R40L | 1.02 |
| R40Q | 0.495 |

| Variant | folding stability dG [kcal/mol] |
| --- | --- |
| R40M | 0.877 |
| R40P | -0.336 |
| R40W | 1.23 |
| R40F | 1.1 |
| R40E | -0.182 |
| R40C | 1.31 |
| R40I | 0.776 |
| R40Y | 1.69 |
| R40N | 0.359 |
| R40S | 0.38 |
| R40D | -0.199 |
| K37W | 0.832 |
| K37L | 1.51 |
| K37C | 2.06 |
| K37G | 0.864 |
| K37V | 1.05 |
| K37M | 1.4 |
| K37S | 1.21 |
| K37E | 1.25 |
| K37T | 1.26 |
| K37R | 1.68 |
| K37H | 1.07 |
| K37F | 0.924 |
| K37A | 1.5 |

| Variant | folding stability dG [kcal/mol] |
| --- | --- |
| K37P | -0.465 |
| K37Q | 1.37 |
| K37I | 1.15 |
| K37N | 1.17 |
| K37D | 0.975 |
| K37Y | 0.938 |
| L36E | -0.06 |
| L36G | 0.032 |
| L36T | 0.179 |
| L36N | 0.046 |
| L36V | 0.838 |
| L36I | 1.62 |
| L36M | 0.68 |
| L36P | -0.108 |
| L36D | -0.448 |
| L36W | 0.856 |
| L36H | 0.249 |
| L36K | -0.007 |
| L36Y | 0.652 |
| L36S | 0.185 |
| L36Q | 0.304 |
| L36F | 0.757 |
| L36R | 0.531 |
| L36A | 0.394 |

| Variant | folding stability dG [kcal/mol] |
| --- | --- |
| R38T | 1.15 |
| R38W | 2 |
| R38A | 1.37 |
| R38Q | 1.23 |
| R38S | 0.842 |
| R38D | 0.493 |
| R38M | 1.9 |
| R38F | 1.83 |
| R38V | 1.37 |
| R38I | 1.73 |
| R38G | 0.522 |
| R38L | 1.94 |
| R38N | 0.87 |
| R38Y | 2.01 |
| R38H | 1.6 |
| R38K | 1.02 |
| R38P | -0.239 |
| R38E | 0.927 |
| K42Q | 1.42 |
| K42Y | 1.5 |
| K42S | 1.13 |
| K42D | 0.935 |
| K42N | 0.7 |
| K42V | 1.23 |

| Variant | folding stability dG [kcal/mol] |
| --- | --- |
| K42F | 1.38 |
| K42R | 1.34 |
| K42T | 1.19 |
| K42W | 1.83 |
| K42A | 1.42 |
| K42H | 1.1 |
| K42P | 0.483 |
| K42I | 1.59 |
| K42E | 1.23 |
| K42M | 1.74 |
| K42L | 1.82 |
| K42G | 0.621 |
| L31V | 0.71 |
| L31Q | 1.75 |
| L31K | 0.756 |
| L31A | 1.28 |
| L31I | 0.938 |
| L31R | 0.535 |
| L31D | 1.52 |
| L31F | 0.877 |
| L31H | 1.08 |
| L31W | 0.95 |
| L31P | 0.452 |
| L31N | 0.715 |

| Variant | folding stability dG [kcal/mol] |
| --- | --- |
| L31T | 0.882 |
| L31E | 2 |
| L31Y | 0.721 |
| L31S | 0.841 |
| L31M | 1.65 |
| L31G | 0.74 |
| L39N | 0.087 |
| L39S | 0.093 |
| L39A | 0.168 |
| L39I | 0.845 |
| L39T | -0.05 |
| L39W | 0.902 |
| L39P | -0.251 |
| L39R | 0.516 |
| L39E | -0.449 |
| L39H | 0.059 |
| L39K | 0.102 |
| L39Y | 0.697 |
| L39M | 0.977 |
| L39Q | -0.059 |
| L39G | -0.429 |
| L39V | 0.079 |
| L39F | 0.806 |

Variants of: B2
Experiment: as above
Details: PBS, room temperature

| Variant | folding stability dG [kcal/mol] |
| --- | --- |
| T2D | 1.35 |
| T2F | 2.33 |
| T2A | 1.82 |
| T2C | 2.9 |
| T2E | 1.76 |
| T1R | 1.87 |
| T1N | 1.62 |
| T1G | 1.95 |
| T1E | 1.93 |
| T1I | 2.44 |
| T1Q | 2.04 |
| T1D | 1.75 |
| T1L | 2 |
| T1K | 1.78 |
| T1Y | 2.93 |
| T1M | 2.21 |
| T1V | 2.44 |
| T1P | 2.15 |
| T1F | 2.69 |
| T1A | 2.06 |
| T1S | 2.05 |
| T1W | 3.2 |
| T1H | 2.1 |
